The results in this text go back to patent publication US20240209086A1 (PETMEDIX, published 2024).

Residue numbers refer to the chain shown, from its start.

The target of experiment [1] is T1, canine CD3εδ-Fc (heterodimer of canine CD3ε-hIgG4PE-knob and canine CD3δ-hIgG4PE-hole) (canine).
T1 construct: also called CD3εδ-Fc fusion protein; copies: 1 + 1
Put plainly: SPR Biacore 8K, single cycle, CD3εδ-Fc amine-coupled on CM5, antibody at 16.5, 33 and 66 nM. How it is done: Candidates CD3 bispecific antibodies were also screened for their ability to bind canine CD3εδ-Fc using surface plasmon resonance (SPR) using a Biacore 8K (Cytiva). Canine CD3εδ-Fc was covalently bound by amine coupling to the surface of a CM5 chip (Cytiva). CHO cell supernatant was diluted to 66, 33 and 16.5 nM in HBS-EP+ buffer and run on the chip single cycle kinetic protocol. Data was analysed using the dedicated software (Biacore Insight Evaluation Software).
(In general: Surface plasmon resonance follows binding to a sensor surface in real time, without labels.)

In experiment [2] the target is T2, canine CD20 on cells (HEK293, MDCK II, CLBL-1 or native B cells) (canine, UniProt Q3C2E2 1-297).
T2 chain: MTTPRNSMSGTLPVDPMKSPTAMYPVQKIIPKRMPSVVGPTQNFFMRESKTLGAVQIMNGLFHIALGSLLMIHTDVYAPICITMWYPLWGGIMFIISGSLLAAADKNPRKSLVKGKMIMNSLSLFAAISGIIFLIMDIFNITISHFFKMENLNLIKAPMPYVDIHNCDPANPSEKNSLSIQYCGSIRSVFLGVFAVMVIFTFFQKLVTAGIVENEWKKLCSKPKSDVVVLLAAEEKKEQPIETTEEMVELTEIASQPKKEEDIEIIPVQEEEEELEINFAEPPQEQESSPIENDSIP
Put plainly: cell-based or functional assay.

The target of experiment [3] is T2, canine CD20 on cells (HEK293, MDCK II, …). Kind of experiment: flow cytometry, canine CD20 HEK293 cells, FITC anti-canine IgG. How it is done:
(§1) A CD20 binding screen was performed on candidate proteins produced from the canine CD20 immunisation as described in Examples 2 and 3. CHO cells supernatants containing candidate antibodies were diluted to 10 μg/ml in FACS buffer (PBS containing 3% FBS) and screened for their ability to bind canine CD20 expressed on cell surface. In brief, 1-2×10⁵ canine CD20-expressing HEK cells were incubated with candidate mAbs for one hour at 4° C., at a fixed concentration of 10 μg/ml followed by incubation with 5 μg/ml of FITC-conjugated anti-canine IgG secondary antibody (Bethyl Laboratories) for 1 hour at 4° C. Cells incubated with anti-canine IgG FITC secondary antibody and without primary anti-canine CD20 antibody, or with isotype control primary antibody, were used as negative controls. The data were acquired on either a Beckman Coulter CytoFLEX or a BD Accuri C6 Plus flow cytometer and analysed using FlowJo software.
(In general: A flow cytometer gives signals particle by particle.)

Experiment [4] has the same target. Put plainly: flow cytometry, canine CD20-expressing HEK cells, 10 µg/ml. As for the experimental part: as §1
Experiment [5] shares this target. Put plainly: cell-based or functional assay.
Experiment [6] has the same target. Kind of experiment: cell-based or functional assay.

T1 sequence (chain, as listed by the source mutant limits assumed): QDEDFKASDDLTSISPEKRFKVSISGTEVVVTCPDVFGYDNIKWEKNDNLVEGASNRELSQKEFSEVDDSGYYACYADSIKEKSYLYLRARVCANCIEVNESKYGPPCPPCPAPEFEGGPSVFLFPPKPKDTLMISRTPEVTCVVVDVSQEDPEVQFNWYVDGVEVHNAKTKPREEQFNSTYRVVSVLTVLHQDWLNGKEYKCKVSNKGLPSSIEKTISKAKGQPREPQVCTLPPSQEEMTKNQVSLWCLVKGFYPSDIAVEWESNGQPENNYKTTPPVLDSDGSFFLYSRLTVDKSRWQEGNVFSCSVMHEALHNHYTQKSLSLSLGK

B1: PMX159 in bispecific format (canine CD3 arm PMX159 x Rituximab arm, human IgG4PE knob-in-hole) (bispecific antibody)
heavy 1: ELTLQESGPGLVKPSQTLSLTCVVSGGSVTRSYYWNWIRQRPGRGLEWMGYWTGSTIYNPTFQGRISITADTAKSQFSLQLRSMTTEDTAMYFCAREGGKSLGAFAYWGQGTLVTVSSASTKGPSVFPLAPCSRSTSESTAALGCLVKDYFPEPVTVSWNSGALTSGVHTFPAVLQSSGLYSLSSVVTVPSSSLGTKTYTCNVDHKPSNTKVDKRVESKYGPPCPPCPAPEFEGGPSVFLFPPKPKDTLMISRTPEVTCVVVDVSQEDPEVQFNWYVDGVEVHNAKTKPREEQFNSTYRVVSVLTVLHQDWLNGKEYKCKVSNKGLPSSIEKTISKAKGQPREPQVYTLPPSQCEMTKNQVSLSCAVKGFYPSDIAVEWESNGQPENNYKTTPPVLDSDGSFFLVSRLTVDKSRWQEGNVFSCSVMHEALHNRFTQKSLSLSLGK
light 1: SYVLTQLPSKNVTLKQPAHITCGGDKIGSKNVHWYQQKLGQAPVMIIYYDSSRPTGIPERFSGANSGNTATLTISGALAEDEADYYCQVWDSSAKAAVFGGGTHLTVLRTVAAPSVFIFPPSDEQLKSGTASVVCLLNNFYPREAKVQWKVDNALQSGNSQESVTEQDSKDSTYSLSSTLTLSKADYEKHKVYACEVTHQGLSSPVTKSFNRGEC
heavy 2: not shown
light 2: QIVLSQSPAILSASPGEKVTMTCRASSSVSYIHWFQQKPGSSPKPWIYATSNLASGVPVRFSGSGSGTSYSLTISRVEAEDAATYYCQQWTSNPPTFGGGTKLEIKRTVAAPSVFIFPPSDEQLKSGTASVVCLLNNFYPREAKVQWKVDNALQSGNSQESVTEQDSKDSTYSLSSTLTLSKADYEKHKVYACEVTHQGLSSPVTKSFNRGEC
For B1, the binding result in experiment [1] was “binds”.

B2: PMX160 in bispecific format (canine CD3 arm PMX160 x Rituximab arm, human IgG4PE knob-in-hole) (bispecific antibody)
heavy 1: EVQMVESGGDLVKPGGSLRFSCVASGFTFSSYHMSWVRQAPGKGLQWVAYINSGGSRTSYADAVKGRFTISRDNAKNTLYLQMNSLRAEDTAVYYCASGRSPPPLGSFDYGLDYWGHGTSLFVSSASTKGPSVFPLAPCSRSTSESTAALGCLVKDYFPEPVTVSWNSGALTSGVHTFPAVLQSSGLYSLSSVVTVPSSSLGTKTYTCNVDHKPSNTKVDKRVESKYGPPCPPCPAPEFEGGPSVFLFPPKPKDTLMISRTPEVTCVVVDVSQEDPEVQFNWYVDGVEVHNAKTKPREEQFNSTYRVVSVLTVLHQDWLNGKEYKCKVSNKGLPSSIEKTISKAKGQPREPQVYTLPPSQCEMTKNQVSLSCAVKGFYPSDIAVEWESNGQPENNYKTTPPVLDSDGSFFLVSRLTVDKSRWQEGNVFSCSVMHEALHNRFTQKSLSLSLGK
light 1: B1 light 1 with K26N, N31S, M45L, A97W, G101E, H104Q
heavy 2: not shown
light 2: B1 light 2
Regarding B2, the binding result in experiment [1] is listed as “binds”.

B3: PMX162 in bispecific format (canine CD3 arm PMX162 x Rituximab arm, human IgG4PE knob-in-hole) (bispecific antibody)
heavy 1: EMQLVESGGDLVKPGGSLRLSCVASGFTFSTYHMSWVRQAPGKGLQWVAYSNSGGTRTYYADAVKGRFTISRDNVKNTLYLQMNSLRAEDTAVYYCASEGSGGGRYGFKDYGMDYWGHGTSLFVSTASTKGPSVFPLAPCSRSTSESTAALGCLVKDYFPEPVTVSWNSGALTSGVHTFPAVLQSSGLYSLSSVVTVPSSSLGTKTYTCNVDHKPSNTKVDKRVESKYGPPCPPCPAPEFEGGPSVFLFPPKPKDTLMISRTPEVTCVVVDVSQEDPEVQFNWYVDGVEVHNAKTKPREEQFNSTYRVVSVLTVLHQDWLNGKEYKCKVSNKGLPSSIEKTISKAKGQPREPQVYTLPPSQCEMTKNQVSLSCAVKGFYPSDIAVEWESNGQPENNYKTTPPVLDSDGSFFLVSRLTVDKSRWQEGNVFSCSVMHEALHNRFTQKSLSLSLGK
light 1: B1 light 1 with K26N, N31S, M45L, A97W, G101E, H104Q
heavy 2: not shown
light 2: B1 light 2
B3: the binding result in experiment [1] is “binds”.

B4: PMX172VH/PMX263VH/PMX172VL (bispecific antibody, V domains shown)
VH 1: EVQLVESGGDLVKPGGSLRLSCVASGFTFSSYHMSWVRQAPGKGLQWVAYSNSGGSRTSYADAVKGRFTISRDNAKNTLYLQMNSLRAEDTAVYYCASEGGGGRYGYKDYGMDYWGHGTSLFVSS
VH 2: EVQLVESGGDLVKPGGSLRLSCVASGFTFSRYYMNWVRQAPGKGLQWVAYINSGGSSTSYADAVKGRFTISRDNAKNTLYLQMNSLRADDTAVYYCTSFDYWGQGTLVTVSS
VL: SYVLTQLPSKNVTLKQPAHITCGGDNIGSKSVHWYQQKLGQAPVLIIYYDSSRPTGIPERFSGANSGNTATLTISGALAEDEADYYCQVWDSSAKAWVFGEGTQLTVL
Regarding B4, the “EC50 (nM), bispecific killing (FIG. 13E)” value in experiment [2] amounted to 15.7 nM.

B5: PMX251 (monospecific anti-canine CD20, canine IgG-B, lambda C5) (antibody, V domains shown)
VH: B4 VH 2 with R31S, Y33H, N35S, D89E, T97A
VL: SYVLTQLPSKNVTLKQPAHITCGGDNIGSKSVHWYQQKLGQAPVLIIYYDSSRPTGIPERFSGANSGNTATLTISGALAEDEADYYCQVWDSSANVFGGGTHLTVLG
With B5, the binding result in experiment [3] is listed as “no binding (tested: 10 µg/ml)”.

B6: PMX244 (monospecific anti-canine CD20, canine IgG-B, lambda C5) (antibody, V domains shown)
VH: B4 VH 2 with Y33H, N35S, S57D, T58S, S59D, D89E, F99L
VL: B5 VL with V44I, S51R, S52R, S92R, A94G
For B6, the binding result in experiment [4] was “binds”.

B7: PMX250 (monospecific anti-canine CD20, canine IgG-B, lambda C5) (antibody, V domains shown)
VH: B4 VH 2 with R31S, Y33H, N35S, N84T, D89E
VL: B5 VL
On to B7, for which the binding result in experiment [3] is listed as “no binding (tested: 10 µg/ml)”.

B8: PMX172VH/PMX239VH/PMX172VL (bispecific antibody, V domains shown)
VH 1: B4 VH 1
VH 2: B4 VH 2 with Y50F, N52T, A61G, D89E
VL: B4 VL
In the case of B8, in experiment [2], the “EC50 (nM), bispecific killing (FIG. 13E)” value worked out at 2.59 nM.

B9: PMX172VH/PMX273VH/PMX172VL (bispecific antibody, V domains shown)
VH 1: B4 VH 1
VH 2: EMQLVESGGDLVKPGGSLRLSCVASGFTFSRYHMSWVRQAPGKGLQWVAYIDSDGSPTNYADAVKGRFTISRDNAKNTLYLQMNSLRAEDTAVYYCTTYDQWGQGTLVTVSS
VL: B4 VL
As for B9, the “EC50 (nM), bispecific killing (FIG. 13E)” value in experiment [2] amounted to 9.63 nM.

B10: PMX172VH/PMX264VH/PMX172VL (bispecific antibody, V domains shown)
VH 1: B4 VH 1
VH 2: B4 VH 2 with Y33H, N35S, Y50F, S53T, G55R, S56M, S59N, D89E, F99L
VL: B4 VL
B10: the “EC50 (nM), endogenous B cell depletion in PBMC (FIG. 16A)” value in experiment [5] worked out at 0.828 nM. Moreover, the “EC50 (nM), bispecific killing (FIG. 13E)” value in experiment [2] worked out at 2.88 nM. Further, the “EC50 (nM), bispecific killing (FIG. 15)” value in experiment [6] came to 0.361 nM.

B11: PMX172VH/PMX272VH/PMX172VL (bispecific antibody, V domains shown)
VH 1: B4 VH 1
VH 2: B4 VH 2 with N52D, G54D
VL: B4 VL
As for B11, the “EC50 (nM), bispecific killing (FIG. 13E)” value in experiment [2] was 5.87 nM.

B12: PMX172VH/PMX236VH/PMX172VL (bispecific antibody, V domains shown)
VH 1: B4 VH 1
VH 2: B4 VH 2 with F27L, N52D, S57P, S59N, D89E, T97S
VL: B4 VL
B12: the “EC50 (nM), endogenous B cell depletion in PBMC (FIG. 16A)” value in experiment [5] was found to be 0.075 nM. Besides, the “EC50 (nM), bispecific killing (FIG. 15)” value in experiment [6] turned out to be 0.153 nM.
